Test results published in patent publication US20060257938A1, “Method of screening for drugs that block ligand binding to a lipid binding protein” (priority 2005, published 2006).
Several values for one entry are separate records, joined by “and”; a condition that tells them apart may be missing. Equal entries are not always repeated.

What was measured:
Assay type in all cases: binding
Settings in all cases: response relative to ADIFAB2
[1] = Probe fluorescence ratio response to linolenic acid relative to ADIFAB2
Summary of the method: (§1)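 Each fatty acid's response was expressed relative to ADIFAB2, the rI-FABP-L72A probe, as ΔR/ΔRreference. ΔR is the change in the background-corrected two-wavelength intensity ratio R=Fλ1/Fλ2 from its analyte-free baseline R0. Emission was read near about 420-480 nm for unbound and about 495-580 nm for FFA-bound probe.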

[2] = Probe fluorescence ratio response to linoleic acid relative to ADIFAB2
Summary of the method: as §1

[3] = Probe fluorescence ratio response to arachidonic acid relative to ADIFAB2
Summary of the method: as §1

[4] = Probe fluorescence ratio response to palmitic acid relative to ADIFAB2
Summary of the method: as §1

[5] = Probe fluorescence ratio response to oleic acid relative to ADIFAB2
Summary of the method: as §1

| Molecule | DR/DR LNA [1] | DR/DR LA [2] | DR/DR AA ([3]; Arachidonic acid) | DR/DR PA [4] | DR/DR OA [5] | DR/DR AA ([3]; arachidonic acid) |
| --- | --- | --- | --- | --- | --- | --- |
| 60P, 72A (protein, listed as Rattus norvegicus, PEPTIDE (1)...(131) wild-type rat intestinal fatty acid binding protein) AFDGTWKVDRNENYEKFMEKMGINVVKRKLGAHDNLKLTITQEGNKFTVKESSNFRNIDPVFELGVDFAYSAADGTELTGTWTMEGNKLVGKFKRVDNGKELIAVREISGNELIQTYTYEGVEAKRIFKKE | 0.77 | 0.81 | 0.62 | 0.37 | 0.81 |  |
| 62D, 72A (protein, listed as Rattus norvegicus, PEPTIDE (1)...(131) wild-type rat intestinal fatty acid binding protein) AFDGTWKVDRNENYEKFMEKMGINVVKRKLGAHDNLKLTITQEGNKFTVKESSNFRNIDVVDELGVDFAYSAADGTELTGTWTMEGNKLVGKFKRVDNGKELIAVREISGNELIQTYTYEGVEAKRIFKKE | 1.58 and 1.576 | 1.60 and 1.598 | 1.49 | 1.39 and 1.385 | 1.57 and 1.574 | 1.485 |
| 60T, 72A (protein, listed as Rattus norvegicus, PEPTIDE (1)...(131) wild-type rat intestinal fatty acid binding protein) AFDGTWKVDRNENYEKFMEKMGINVVKRKLGAHDNLKLTITQEGNKFTVKESSNFRNIDTVFELGVDFAYSAADGTELTGTWTMEGNKLVGKFKRVDNGKELIAVREISGNELIQTYTYEGVEAKRIFKKE | 1.73 | 1.73 | 1.72 | 1.49 | 1.76 |  |
| 60Q, 72A (protein, listed as Rattus norvegicus, PEPTIDE (1)...(131) wild-type rat intestinal fatty acid binding protein) AFDGTWKVDRNENYEKFMEKMGINVVKRKLGAHDNLKLTITQEGNKFTVKESSNFRNIDQVFELGVDFAYSAADGTELTGTWTMEGNKLVGKFKRVDNGKELIAVREISGNELIQTYTYEGVEAKRIFKKE | 0.42 | 0.41 | 0.36 | 0.35 | 0.41 |  |
| 60R, 72A (protein, listed as Rattus norvegicus, PEPTIDE (1)...(131) wild-type rat intestinal fatty acid binding protein) AFDGTWKVDRNENYEKFMEKMGINVVKRKLGAHDNLKLTITQEGNKFTVKESSNFRNIDRVFELGVDFAYSAADGTELTGTWTMEGNKLVGKFKRVDNGKELIAVREISGNELIQTYTYEGVEAKRIFKKE | 0.14 | 0.12 | 0.14 | 0.08 | 0.13 |  |
| 60W, 72A (protein, listed as Rattus norvegicus, PEPTIDE (1)...(131) wild-type rat intestinal fatty acid binding protein) AFDGTWKVDRNENYEKFMEKMGINVVKRKLGAHDNLKLTITQEGNKFTVKESSNFRNIDWVFELGVDFAYSAADGTELTGTWTMEGNKLVGKFKRVDNGKELIAVREISGNELIQTYTYEGVEAKRIFKKE | 0.74 and 0.739 | 0.84 and 0.837 | 0.67 | 0.59 and 0.595 | 0.76 and 0.763 | 0.670 |
| 62G, 72A (protein, listed as Rattus norvegicus, PEPTIDE (1)...(131) wild-type rat intestinal fatty acid binding protein) AFDGTWKVDRNENYEKFMEKMGINVVKRKLGAHDNLKLTITQEGNKFTVKESSNFRNIDVVGELGVDFAYSAADGTELTGTWTMEGNKLVGKFKRVDNGKELIAVREISGNELIQTYTYEGVEAKRIFKKE | 1.44 | 1.44 | 1.43 | 1.26 | 1.46 |  |
| 60S, 72A (protein, listed as Rattus norvegicus, PEPTIDE (1)...(131) wild-type rat intestinal fatty acid binding protein) AFDGTWKVDRNENYEKFMEKMGINVVKRKLGAHDNLKLTITQEGNKFTVKESSNFRNIDSVFELGVDFAYSAADGTELTGTWTMEGNKLVGKFKRVDNGKELIAVREISGNELIQTYTYEGVEAKRIFKKE | 0.71 | 0.72 | 0.56 | 0.59 | 0.67 |  |
| 62E, 72A (protein, listed as Rattus norvegicus, PEPTIDE (1)...(131) wild-type rat intestinal fatty acid binding protein) AFDGTWKVDRNENYEKFMEKMGINVVKRKLGAHDNLKLTITQEGNKFTVKESSNFRNIDVVEELGVDFAYSAADGTELTGTWTMEGNKLVGKFKRVDNGKELIAVREISGNELIQTYTYEGVEAKRIFKKE | 1.52 | 1.49 | 1.48 | 1.40 | 1.52 |  |
| 62A, 72A (protein, listed as Rattus norvegicus, PEPTIDE (1)...(131) wild-type rat intestinal fatty acid binding protein) AFDGTWKVDRNENYEKFMEKMGINVVKRKLGAHDNLKLTITQEGNKFTVKESSNFRNIDVVAELGVDFAYSAADGTELTGTWTMEGNKLVGKFKRVDNGKELIAVREISGNELIQTYTYEGVEAKRIFKKE | 1.08 | 0.96 | 1.08 | 0.57 | 0.86 |  |
| 62C, 72A (protein, listed as Rattus norvegicus, PEPTIDE (1)...(131) wild-type rat intestinal fatty acid binding protein) AFDGTWKVDRNENYEKFMEKMGINVVKRKLGAHDNLKLTITQEGNKFTVKESSNFRNIDVVCELGVDFAYSAADGTELTGTWTMEGNKLVGKFKRVDNGKELIAVREISGNELIQTYTYEGVEAKRIFKKE | 1.31 | 1.31 | 1.30 | 1.18 | 1.29 |  |
